Earlier results in publication PMC4773801.

Molecular target: bee venom group III sPLA2 (Apis mellifera) (UniProt P00630)
Chain of UniProt P00630 (P00630 34-167): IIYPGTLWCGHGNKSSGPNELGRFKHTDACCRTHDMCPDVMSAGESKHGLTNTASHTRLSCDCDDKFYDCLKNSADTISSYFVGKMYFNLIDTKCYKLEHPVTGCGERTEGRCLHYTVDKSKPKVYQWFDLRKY

mannose receptor CD206 (from UniProt P22897)
Kd: 4.79 µM
